Experimental data as given in the supplement of paper PMC9112550, “Optimization of the antimicrobial peptide Bac7 by deep mutational scanning” (BMC Biology, 2022).

Each sequence was assayed on Escherichia coli TOP10 (assay: shrunken log2 fold change of peptide-encoding DNA abundance (4.5 h post-induction vs induction); higher = less antimicrobial activity (less host growth inhibition)). Conditions: time post-induction: 4.5 h; library: site-saturation at positions 5, 18, 19, 20.
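Also: peptides expressed intracellularly from a pBAD plasmid library in pooled LB shake-flask culture, induced with 0.3% L-arabinose, DNA abundance read by NGS, three biological replicates, DESeq2 with apeglm shrinkage.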

Sequence | shrunken log2 fold change
RRIRKRPPRLPRPRPRPKSRPRP | 0.296
RRIRKRPPRLPRPRPRPKSSPRP | 0.202
RRIRKRPPRLPRPRPRPKWGPRP | 0.594
RRIRKRPPRLPRPRPRPKWTPRP | 0.198
RRIRKRPPRLPRPRPRPKYLPRP | -0.0198
RRIRKRPPRLPRPRPRPLAHPRP | 0.551
RRIRKRPPRLPRPRPRPLDSPRP | 0.233
RRIRKRPPRLPRPRPRPLDTPRP | 0.000649
RRIRKRPPRLPRPRPRPLESPRP | 0.515
RRIRKRPPRLPRPRPRPLFVPRP | 0.153
RRIRKRPPRLPRPRPRPLFYPRP | -0.0645
RRIRKRPPRLPRPRPRPLHTPRP | -0.368
RRIRKRPPRLPRPRPRPLIGPRP | 0.28
RRIRKRPPRLPRPRPRPLKDPRP | -0.22
RRIRKRPPRLPRPRPRPLKMPRP | 0.0436
RRIRKRPPRLPRPRPRPLLPPRP | 0.227
RRIRKRPPRLPRPRPRPLMCPRP | -0.122
RRIRKRPPRLPRPRPRPLMGPRP | 0.818
RRIRKRPPRLPRPRPRPLNHPRP | -0.0528
RRIRKRPPRLPRPRPRPLPEPRP | 0.351
RRIRKRPPRLPRPRPRPLPHPRP | -0.0107
RRIRKRPPRLPRPRPRPLPIPRP | 0.143
RRIRKRPPRLPRPRPRPLPNPRP | -0.0104
RRIRKRPPRLPRPRPRPLRFPRP | 0.896
RRIRKRPPRLPRPRPRPLRWPRP | 1.37

Sequence | shrunken log2 fold change
RRIRKRPPRLPRPRPRPLSFPRP | -0.191
RRIRKRPPRLPRPRPRPLSVPRP | -0.00128
RRIRKRPPRLPRPRPRPLTDPRP | -0.0168
RRIRKRPPRLPRPRPRPLVDPRP | 0.218
RRIRKRPPRLPRPRPRPLWGPRP | 0.115
RRIRKRPPRLPRPRPRPLWQPRP | 0.442
RRIRKRPPRLPRPRPRPLWTPRP | 0.0306
RRIRKRPPRLPRPRPRPLYDPRP | -0.0647
RRIRKRPPRLPRPRPRPMCIPRP | -0.00174
RRIRKRPPRLPRPRPRPMCLPRP | -0.0392
RRIRKRPPRLPRPRPRPMCYPRP | -0.00324
RRIRKRPPRLPRPRPRPMDHPRP | 0.34
RRIRKRPPRLPRPRPRPMEAPRP | 0.0719
RRIRKRPPRLPRPRPRPMFLPRP | -0.0587
RRIRKRPPRLPRPRPRPMFVPRP | 0.426
RRIRKRPPRLPRPRPRPMFYPRP | -0.169
RRIRKRPPRLPRPRPRPMGFPRP | -0.00871
RRIRKRPPRLPRPRPRPMGIPRP | -0.00149
RRIRKRPPRLPRPRPRPMHLPRP | -0.0647
RRIRKRPPRLPRPRPRPMIAPRP | 0.509
RRIRKRPPRLPRPRPRPMKCPRP | 0.0794
RRIRKRPPRLPRPRPRPMKIPRP | 0.291
RRIRKRPPRLPRPRPRPMKMPRP | 0.473
RRIRKRPPRLPRPRPRPMLGPRP | 0.00289
RRIRKRPPRLPRPRPRPMLMPRP | 0.322

Sequence | shrunken log2 fold change
RRIRKRPPRLPRPRPRPMMSPRP | -0.00973
RRIRKRPPRLPRPRPRPMPGPRP | 0.0564
RRIRKRPPRLPRPRPRPMPSPRP | 0.0546
RRIRKRPPRLPRPRPRPMQPPRP | 0.288
RRIRKRPPRLPRPRPRPMRHPRP | 0.0303
RRIRKRPPRLPRPRPRPMTMPRP | -0.00185
RRIRKRPPRLPRPRPRPMVRPRP | 0.00145
RRIRKRPPRLPRPRPRPMWIPRP | -0.0247
RRIRKRPPRLPRPRPRPMYNPRP | -0.315
RRIRKRPPRLPRPRPRPNACPRP | 0.0357
RRIRKRPPRLPRPRPRPNAKPRP | -0.0195
RRIRKRPPRLPRPRPRPNAMPRP | -0.0822
RRIRKRPPRLPRPRPRPNATPRP | 1.16
RRIRKRPPRLPRPRPRPNCIPRP | -0.0156
RRIRKRPPRLPRPRPRPNECPRP | 0.157
RRIRKRPPRLPRPRPRPNFGPRP | 0.252
RRIRKRPPRLPRPRPRPNFPPRP | 0.117
RRIRKRPPRLPRPRPRPNFRPRP | 0.155
RRIRKRPPRLPRPRPRPNGKPRP | -0.114
RRIRKRPPRLPRPRPRPNGVPRP | 0.0149
RRIRKRPPRLPRPRPRPNIDPRP | -0.0981
RRIRKRPPRLPRPRPRPNKMPRP | -0.231
RRIRKRPPRLPRPRPRPNKTPRP | -0.227
RRIRKRPPRLPRPRPRPNNWPRP | 0.42
RRIRKRPPRLPRPRPRPNPPPRP | 0.0342

Sequence | shrunken log2 fold change
RRIRKRPPRLPRPRPRPNSMPRP | -0.115
RRIRKRPPRLPRPRPRPNWCPRP | -0.0436
RRIRKRPPRLPRPRPRPNYEPRP | -0.0635
RRIRKRPPRLPRPRPRPPAPPRP | 1.14
RRIRKRPPRLPRPRPRPPCHPRP | 0.176
RRIRKRPPRLPRPRPRPPDIPRP | 0.609
RRIRKRPPRLPRPRPRPPGGPRP | 0.811
RRIRKRPPRLPRPRPRPPHPPRP | 0.672
RRIRKRPPRLPRPRPRPPIGPRP | 0.407
RRIRKRPPRLPRPRPRPPILPRP | 0.0292
RRIRKRPPRLPRPRPRPPISPRP | 0.22
RRIRKRPPRLPRPRPRPPKQPRP | 0.202
RRIRKRPPRLPRPRPRPPKTPRP | 0.0147
RRIRKRPPRLPRPRPRPPLWPRP | 0.931
RRIRKRPPRLPRPRPRPPNYPRP | -0.19
RRIRKRPPRLPRPRPRPPPPPRP | 1.23
RRIRKRPPRLPRPRPRPPQVPRP | 0.00672
RRIRKRPPRLPRPRPRPPRDPRP | 1.01
RRIRKRPPRLPRPRPRPPRQPRP | 0.82
RRIRKRPPRLPRPRPRPPTCPRP | 0.217
RRIRKRPPRLPRPRPRPPTRPRP | 1.49
RRIRKRPPRLPRPRPRPPTWPRP | 0.702
RRIRKRPPRLPRPRPRPPWPPRP | 0.827
RRIRKRPPRLPRPRPRPPYPPRP | 0.0247
RRIRKRPPRLPRPRPRPPYTPRP | 0.0509

Sequence | shrunken log2 fold change
RRIRKRPPRLPRPRPRPQAWPRP | 0.314
RRIRKRPPRLPRPRPRPQCRPRP | 0.162
RRIRKRPPRLPRPRPRPQCYPRP | -0.114
RRIRKRPPRLPRPRPRPQDRPRP | 0.201
RRIRKRPPRLPRPRPRPQDVPRP | -0.0018
RRIRKRPPRLPRPRPRPQDWPRP | 0.413
RRIRKRPPRLPRPRPRPQEFPRP | -0.0241
RRIRKRPPRLPRPRPRPQESPRP | -0.00973
RRIRKRPPRLPRPRPRPQIQPRP | 0.0528
RRIRKRPPRLPRPRPRPQPEPRP | 0.7
RRIRKRPPRLPRPRPRPQPQPRP | 0.817
RRIRKRPPRLPRPRPRPQQAPRP | -0.0621
RRIRKRPPRLPRPRPRPQQGPRP | 0.23
RRIRKRPPRLPRPRPRPQRWPRP | 0.0222
RRIRKRPPRLPRPRPRPQSWPRP | 0.451
RRIRKRPPRLPRPRPRPQTCPRP | -0.132
RRIRKRPPRLPRPRPRPQWDPRP | 0.00929
RRIRKRPPRLPRPRPRPQWRPRP | 0.309
RRIRKRPPRLPRPRPRPQYLPRP | -0.0967
RRIRKRPPRLPRPRPRPQYVPRP | -0.143
RRIRKRPPRLPRPRPRPRCPPRP | 0.52
RRIRKRPPRLPRPRPRPRCQPRP | 0.099
RRIRKRPPRLPRPRPRPRDEPRP | -0.0461
RRIRKRPPRLPRPRPRPRFKPRP | 0.52
RRIRKRPPRLPRPRPRPRFQPRP | -0.00313

Sequence | shrunken log2 fold change
RRIRKRPPRLPRPRPRPRFVPRP | 0.0638
RRIRKRPPRLPRPRPRPRHSPRP | 0.152
RRIRKRPPRLPRPRPRPRIEPRP | 0.112
RRIRKRPPRLPRPRPRPRKLPRP | 0.0707
RRIRKRPPRLPRPRPRPRLCPRP | 0.308
RRIRKRPPRLPRPRPRPRMTPRP | 0.635
RRIRKRPPRLPRPRPRPRPGPRP | 0.721
RRIRKRPPRLPRPRPRPRPIPRP | 0.824
RRIRKRPPRLPRPRPRPRQAPRP | 1.79
RRIRKRPPRLPRPRPRPRRAPRP | 0.9
RRIRKRPPRLPRPRPRPRSCPRP | 0.239
RRIRKRPPRLPRPRPRPRSVPRP | 0.402
RRIRKRPPRLPRPRPRPRTFPRP | 0.243
RRIRKRPPRLPRPRPRPRTIPRP | 0.262
RRIRKRPPRLPRPRPRPRTWPRP | 0.124
RRIRKRPPRLPRPRPRPRVVPRP | 0.143
RRIRKRPPRLPRPRPRPRVWPRP | 0.809
RRIRKRPPRLPRPRPRPRWVPRP | 0.642
RRIRKRPPRLPRPRPRPRYPPRP | 0.122
RRIRKRPPRLPRPRPRPSACPRP | -0.0843
RRIRKRPPRLPRPRPRPSAKPRP | 0.397
RRIRKRPPRLPRPRPRPSARPRP | 0.468
RRIRKRPPRLPRPRPRPSCCPRP | 0.269
RRIRKRPPRLPRPRPRPSECPRP | -0.0384
RRIRKRPPRLPRPRPRPSFIPRP | -0.262
